In patent EP3873932A1:

Legend:
[1] = biological target: human amyloidomas (all implanted human amyloid extracts); experiment: in vivo microPET, 4 days after tracer injection
[2] = biological target: human amyloidomas of lambda subtypes; experiment: in vivo microPET of mice implanted with lambda subtype amyloid
[3] = biological target: human amyloidomas of kappa subtypes; experiment: in vivo microPET of mice implanted with kappa subtype amyloid
[4] = biological target: human amyloidomas (all implanted human amyloid extracts); experiment: in vivo microPET

- T:B ratio (amyloid deposit-to-background, SUVmax) [1]: 2.1 to 4.2
- T:B ratio (amyloid deposit-to-background, SUVmax) [2]: 2.8
- T:B ratio (amyloid deposit-to-background, SUVmax) [3]: 4.1
- T:B uptake (amyloid deposit-to-background) [4]: > 2.1
B1: [124I]CAEL-101 (antibody, human IgG1, V domains shown)
VH: QVQLKESGPGLVAPSQSLSITCTVSGFSLSSYGVSWVRQPPGKGLEWLGVIWGDGSTNYHPNLMSRLSISKDISKSQVLFKLNSLQTDDTATYYCVTLDYWGQGTSVTVSS
VL: DVVMTQTPLSLPVSLGDQASISCRSSQSLVHRNGNTYLHWYLQKPGQSPKLLIYKVSNRFSGVPRDFSGSGSGTDFTLKISRVEAEDLGLYFCFQTTYVPNTFGGGTKLEIK
modifications: 124I radiolabel by the standard iodogen reaction (residues and chain not stated)
